Measurements taken from US6858578.
Where “and” joins values, the source holds several entries; their conditions need not be identical. Equal entries are not always repeated.

Biological target: LDLR/TF chimeric protein with amino acids 1-374 of mature human LDLR fused to amino acids 20-698 of human transferrin (encoded by pEFBOS/LDLrTF1.S) (human)
Experiment: microplate assay: chimeric protein (13.3 nM) held by coated HTF-14, LDL 0.5-50 µg/ml, detected with sheep anti-human LDL; the signal at 50 µg/ml is taken as the maximum

LDLR/TF chimeric protein with amino acids 1-374 of mature human LDLR fused to amino acids 20-698 of human transferrin (encoded by pEFBOS/LDLrTF1.S) (human), sequence (chain, as listed by the source mutant): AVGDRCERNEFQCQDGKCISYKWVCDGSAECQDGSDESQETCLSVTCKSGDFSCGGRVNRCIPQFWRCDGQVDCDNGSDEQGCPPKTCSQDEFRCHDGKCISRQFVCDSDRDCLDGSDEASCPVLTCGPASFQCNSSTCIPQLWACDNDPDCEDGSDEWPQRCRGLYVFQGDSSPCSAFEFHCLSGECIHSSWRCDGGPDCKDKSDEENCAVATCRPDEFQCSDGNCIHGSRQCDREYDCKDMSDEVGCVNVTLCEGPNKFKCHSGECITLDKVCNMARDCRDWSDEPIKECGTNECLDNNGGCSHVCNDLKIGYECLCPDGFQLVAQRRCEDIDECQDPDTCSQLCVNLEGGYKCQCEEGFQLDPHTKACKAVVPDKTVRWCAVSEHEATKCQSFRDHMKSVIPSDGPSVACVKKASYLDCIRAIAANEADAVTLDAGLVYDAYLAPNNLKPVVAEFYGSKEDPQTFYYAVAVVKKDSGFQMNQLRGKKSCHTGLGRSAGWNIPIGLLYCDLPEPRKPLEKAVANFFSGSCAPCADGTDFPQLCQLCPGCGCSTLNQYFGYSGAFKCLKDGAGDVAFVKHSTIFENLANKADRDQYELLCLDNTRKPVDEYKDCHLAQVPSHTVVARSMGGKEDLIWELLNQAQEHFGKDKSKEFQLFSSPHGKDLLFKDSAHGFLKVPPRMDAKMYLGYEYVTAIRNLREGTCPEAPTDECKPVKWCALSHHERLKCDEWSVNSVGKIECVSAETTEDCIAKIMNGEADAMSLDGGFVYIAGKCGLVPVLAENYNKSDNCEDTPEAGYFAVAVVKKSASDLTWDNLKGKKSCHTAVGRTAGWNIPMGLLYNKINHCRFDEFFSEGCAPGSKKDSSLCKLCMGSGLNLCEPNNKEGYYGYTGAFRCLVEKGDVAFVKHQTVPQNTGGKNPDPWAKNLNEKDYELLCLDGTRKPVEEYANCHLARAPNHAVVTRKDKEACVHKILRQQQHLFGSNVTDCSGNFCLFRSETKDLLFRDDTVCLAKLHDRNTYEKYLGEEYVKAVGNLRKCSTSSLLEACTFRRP

EC50: 1.6 µg/mL and 3.1 nM
Substance: human LDL (low density lipoprotein particle carrying one molecule of apolipoprotein B-100), P04114 28-4563
